Laboratory results: US9522198B2, “Methods and compositions related to targeting tumors and wounds” (Sanford-Burnham Medical Research Institute, priority 2006, dated 2016)
Ends that are not written are not given here.

Experiments:
Type in all cases: biochemical
[1] = target: T1, fibrinogen (Homo sapiens, UniProt P02671+P02675+P02679); experiment: Aggregate formation with plasma proteins, light scattering at 600 nm (turbidity)
T1 sequence (P02671 20-629 limits assumed): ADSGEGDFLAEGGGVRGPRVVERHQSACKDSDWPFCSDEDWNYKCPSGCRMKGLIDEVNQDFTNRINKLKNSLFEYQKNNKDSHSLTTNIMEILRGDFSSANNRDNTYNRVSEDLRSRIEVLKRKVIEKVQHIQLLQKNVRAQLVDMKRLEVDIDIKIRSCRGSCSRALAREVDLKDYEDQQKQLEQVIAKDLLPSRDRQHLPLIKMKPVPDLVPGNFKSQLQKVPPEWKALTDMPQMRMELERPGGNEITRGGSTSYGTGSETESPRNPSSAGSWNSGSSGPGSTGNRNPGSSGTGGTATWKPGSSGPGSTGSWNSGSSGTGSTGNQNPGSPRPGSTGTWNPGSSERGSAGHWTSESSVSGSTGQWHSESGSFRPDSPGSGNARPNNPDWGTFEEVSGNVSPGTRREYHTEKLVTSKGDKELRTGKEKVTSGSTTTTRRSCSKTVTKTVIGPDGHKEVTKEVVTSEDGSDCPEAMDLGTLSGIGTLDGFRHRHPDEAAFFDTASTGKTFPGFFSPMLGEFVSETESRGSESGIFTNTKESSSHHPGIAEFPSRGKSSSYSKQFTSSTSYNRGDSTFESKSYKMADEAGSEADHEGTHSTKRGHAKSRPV
T1 sequence (P02675 31-491): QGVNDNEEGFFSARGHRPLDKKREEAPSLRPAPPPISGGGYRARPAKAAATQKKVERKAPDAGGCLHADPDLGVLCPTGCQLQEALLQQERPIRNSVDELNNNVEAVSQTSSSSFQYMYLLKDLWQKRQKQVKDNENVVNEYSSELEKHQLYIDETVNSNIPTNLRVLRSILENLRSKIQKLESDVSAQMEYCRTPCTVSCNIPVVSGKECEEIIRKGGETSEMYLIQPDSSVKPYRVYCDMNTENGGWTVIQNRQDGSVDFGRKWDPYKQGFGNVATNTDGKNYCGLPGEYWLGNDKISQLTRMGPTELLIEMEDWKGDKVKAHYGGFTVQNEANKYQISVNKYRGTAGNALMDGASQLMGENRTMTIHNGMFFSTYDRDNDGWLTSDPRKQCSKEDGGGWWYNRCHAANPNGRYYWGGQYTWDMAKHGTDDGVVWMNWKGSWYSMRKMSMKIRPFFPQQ
T1 sequence (P02679 27-453): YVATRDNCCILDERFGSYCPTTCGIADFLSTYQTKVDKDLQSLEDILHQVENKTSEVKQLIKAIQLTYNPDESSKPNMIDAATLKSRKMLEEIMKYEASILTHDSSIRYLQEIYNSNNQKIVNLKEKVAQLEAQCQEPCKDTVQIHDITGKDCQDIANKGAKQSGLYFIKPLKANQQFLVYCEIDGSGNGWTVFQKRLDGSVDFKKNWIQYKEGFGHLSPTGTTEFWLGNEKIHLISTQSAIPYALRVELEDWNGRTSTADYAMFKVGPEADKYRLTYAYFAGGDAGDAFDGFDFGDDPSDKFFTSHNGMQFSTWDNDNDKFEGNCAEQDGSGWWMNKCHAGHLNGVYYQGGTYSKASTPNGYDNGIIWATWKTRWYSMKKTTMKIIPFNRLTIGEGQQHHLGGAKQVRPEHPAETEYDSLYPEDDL
Excerpt: (§1) CLT1 contains a sequence of three consecutive hydrophobic residues, LII (leucine-isoleucine-isoleucine). This motif is very similar to the VII sequence (V, valine) which causes proteins to form large insoluble aggregates (Esteras-Chopo et al. 2005). […] The ability of CLT1 to aggregate proteins correlates with its cytotoxicity for human umbilical venous endothelial cells (HUVECs).

[2] = system: fibronectin; experiment: as above
Excerpt: as §1

[3] = target: albumin (Homo sapiens, UniProt P02768); experiment: Aggregate formation in albumin solution (turbidity); details: added to an albumin solution
Excerpt: as §1

Sequence: CGLIIQKNEC (also: cyclic, ring type not given here, fluorescein conjugate, site not given here) [CLT1, cyclic decapeptide from phage library screened on plasma clots; tested as fluorescein conjugate]
- aggregate formation with fibrinogen [1]: form aggregates
- aggregate formation with fibronectin [2]: form aggregates
- aggregate formation in albumin solution [3]: not amyloidogenic
